Experimental data published in patent US20150283263A1.

Molecular target: CD25 (human) (UniProt P01589)
Assay: flow cytometry on Karpas299 cells (surface CD25); negative control antibody

CD25 (human), sequence (P01589 22-272): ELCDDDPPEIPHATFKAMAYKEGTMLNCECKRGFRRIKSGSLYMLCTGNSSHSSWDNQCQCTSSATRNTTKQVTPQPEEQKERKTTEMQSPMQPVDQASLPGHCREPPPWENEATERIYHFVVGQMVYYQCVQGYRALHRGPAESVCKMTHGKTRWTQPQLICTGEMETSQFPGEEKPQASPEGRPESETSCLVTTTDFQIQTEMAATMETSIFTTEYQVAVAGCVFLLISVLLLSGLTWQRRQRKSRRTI

EC50: 537 µg/mL
Substance: B12 anti-HIV gp120 antibody
